Data from paper PMC10397247.

Legend:
Experiment in all cases: two-hybrid library CCNG1;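 further: natural log of median RNA to DNA barcode read ratio; higher means stronger binding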
4H1845-bN = target: T1, 4H1845-bN
T1 chain: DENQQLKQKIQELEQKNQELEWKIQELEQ

4H2442-bN = target: T2, 4H2442-bN
T2 chain: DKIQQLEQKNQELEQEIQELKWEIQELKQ

4H2576-bN = target: T3, 4H2576-bN
T3 chain: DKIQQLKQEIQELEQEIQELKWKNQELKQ

4H2588-bN = target: T4, 4H2588-bN
T4 chain: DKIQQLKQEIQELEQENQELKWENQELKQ

4H2610-bN = target: T5, 4H2610-bN
T5 chain: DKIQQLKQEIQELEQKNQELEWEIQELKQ

4H2618-bN = target: T6, 4H2618-bN
T6 chain: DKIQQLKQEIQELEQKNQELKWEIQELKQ

4H2667-bN = target: T7, 4H2667-bN
T7 chain: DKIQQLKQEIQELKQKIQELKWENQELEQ

4H2697-bN = target: T8, 4H2697-bN
T8 chain: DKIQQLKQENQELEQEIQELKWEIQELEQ

4H2729-bN = target: T9, 4H2729-bN
T9 chain: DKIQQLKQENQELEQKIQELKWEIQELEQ

4H3112-bN = target: T10, 4H3112-bN
T10 chain: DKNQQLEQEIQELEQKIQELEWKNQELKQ

4H3185-bN = target: T11, 4H3185-bN
T11 chain: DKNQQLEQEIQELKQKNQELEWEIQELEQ

4H3189-bN = target: T12, 4H3189-bN
T12 chain: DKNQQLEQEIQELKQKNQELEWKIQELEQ

4H331-bN = target: T13, 4H331-bN
T13 chain: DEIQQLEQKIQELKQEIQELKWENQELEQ

4H3354-bN = target: T14, 4H3354-bN
T14 chain: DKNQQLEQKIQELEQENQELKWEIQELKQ

4H338-bN = target: T15, 4H338-bN
T15 chain: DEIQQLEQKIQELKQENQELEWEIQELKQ

4H3427-bN = target: T16, 4H3427-bN
T16 chain: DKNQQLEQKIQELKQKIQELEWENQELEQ

4H3606-bN = target: T17, 4H3606-bN
T17 chain: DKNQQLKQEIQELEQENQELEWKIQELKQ

4H370-bN = target: T18, 4H370-bN
T18 chain: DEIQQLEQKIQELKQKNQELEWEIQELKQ

4H3782-bN = target: T19, 4H3782-bN
T19 chain: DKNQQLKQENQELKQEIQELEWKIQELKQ

4H3843-bN = target: T20, 4H3843-bN
T20 chain: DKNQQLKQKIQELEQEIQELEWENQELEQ

4H3855-bN = target: T21, 4H3855-bN
T21 chain: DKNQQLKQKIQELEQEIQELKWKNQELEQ

4H4001-bN = target: T22, 4H4001-bN
T22 chain: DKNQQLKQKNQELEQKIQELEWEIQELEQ

4H454-bN = target: T23, 4H454-bN
T23 chain: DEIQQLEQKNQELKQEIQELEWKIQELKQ

4H462-bN = target: T24, 4H462-bN
T24 chain: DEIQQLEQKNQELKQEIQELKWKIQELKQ

4H568-bN = target: T25, 4H568-bN
T25 chain: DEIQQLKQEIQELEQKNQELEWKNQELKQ

4H570-bN = target: T26, 4H570-bN
T26 chain: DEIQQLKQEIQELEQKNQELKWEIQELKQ

4H607-bN = target: T27, 4H607-bN
T27 chain: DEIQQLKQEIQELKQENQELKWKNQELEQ

4H619-bN = target: T28, 4H619-bN
T28 chain: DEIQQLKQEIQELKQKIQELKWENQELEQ

4H687-bN = target: T29, 4H687-bN
T29 chain: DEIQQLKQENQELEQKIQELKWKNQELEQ

4H717-bN = target: T30, 4H717-bN
T30 chain: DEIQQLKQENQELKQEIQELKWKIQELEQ

4H72-bN = target: T31, 4H72-bN
T31 chain: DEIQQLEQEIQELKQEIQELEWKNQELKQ

4H754-bN = target: T32, 4H754-bN
T32 chain: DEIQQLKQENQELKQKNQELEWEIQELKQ

4H797-bN = target: T33, 4H797-bN
T33 chain: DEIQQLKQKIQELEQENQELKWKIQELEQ

4H883-bN = target: T34, 4H883-bN
T34 chain: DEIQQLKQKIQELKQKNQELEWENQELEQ

4H908-bN = target: T35, 4H908-bN
T35 chain: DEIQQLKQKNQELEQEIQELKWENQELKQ

4H918-bN = target: T36, 4H918-bN
T36 chain: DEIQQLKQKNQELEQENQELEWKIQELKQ

4H953-bN = target: T37, 4H953-bN
T37 chain: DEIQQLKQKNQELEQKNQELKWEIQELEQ

4H967-bN = target: T38, 4H967-bN
T38 chain: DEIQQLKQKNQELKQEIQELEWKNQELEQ

4H2692-bA = target: T39, 4H2692-bA
T39 chain: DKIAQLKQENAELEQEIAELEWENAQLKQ

4H2931-bA = target: T40, 4H2931-bA
T40 chain: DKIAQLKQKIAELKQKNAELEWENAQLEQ

4H1629-bA = target: T41, 4H1629-bA
T41 chain: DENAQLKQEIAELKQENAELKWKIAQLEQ

4H1710-bA = target: T42, 4H1710-bA
T42 chain: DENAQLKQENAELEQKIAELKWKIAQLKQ

4H1804-bA = target: T43, 4H1804-bA
T43 chain: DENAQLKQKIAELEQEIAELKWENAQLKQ

4H1985-bA = target: T44, 4H1985-bA
T44 chain: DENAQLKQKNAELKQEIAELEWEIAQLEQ

4H3129-bA = target: T45, 4H3129-bA
T45 chain: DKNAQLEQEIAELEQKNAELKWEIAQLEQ

4H3172-bA = target: T46, 4H3172-bA
T46 chain: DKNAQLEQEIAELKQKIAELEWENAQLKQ

4H3414-bA = target: T47, 4H3414-bA
T47 chain: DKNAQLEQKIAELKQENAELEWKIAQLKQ

4H3631-bA = target: T48, 4H3631-bA
T48 chain: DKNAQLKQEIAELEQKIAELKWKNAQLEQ

4H3638-bA = target: T49, 4H3638-bA
T49 chain: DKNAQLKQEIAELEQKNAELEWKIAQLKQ

4H3817-bA = target: T50, 4H3817-bA
T50 chain: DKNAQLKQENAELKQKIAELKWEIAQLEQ

4H3974-bA = target: T51, 4H3974-bA
T51 chain: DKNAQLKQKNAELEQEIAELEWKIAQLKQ

4H570-bA = target: T52, 4H570-bA
T52 chain: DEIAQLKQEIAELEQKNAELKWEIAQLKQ

4H584-bA = target: T53, 4H584-bA
T53 chain: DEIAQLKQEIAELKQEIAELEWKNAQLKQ

4H619-bA = target: T54, 4H619-bA
T54 chain: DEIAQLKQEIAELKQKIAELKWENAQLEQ

4H850-bA = target: T55, 4H850-bA
T55 chain: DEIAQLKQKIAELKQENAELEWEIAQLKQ

4H906-bA = target: T56, 4H906-bA
T56 chain: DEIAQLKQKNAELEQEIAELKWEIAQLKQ

B1: 4H1845-bN (peptide)
chain: DENQQLKQKIQELEQKNQELEWKIQELEQ
- interaction score (4H1845-bN): 0.0957
- interaction score (4H2442-bN): -0.755
- interaction score (4H2576-bN): -1.34
- interaction score (4H2588-bN): -1.62
- interaction score (4H2610-bN): -0.755
- interaction score (4H2618-bN): -0.877
- interaction score (4H2667-bN): 0.755
- interaction score (4H2697-bN): -1.96
- interaction score (4H2729-bN): -0.274
- interaction score (4H3112-bN): -0.777
- interaction score (4H3185-bN): -0.558
- interaction score (4H3189-bN): -0.856
- interaction score (4H331-bN): -1.66
- interaction score (4H3354-bN): -0.397
- interaction score (4H338-bN): -0.586
- interaction score (4H3427-bN): -1.53
- interaction score (4H3606-bN): -0.857
- interaction score (4H370-bN): -1.16
- interaction score (4H3782-bN): -1.24
- interaction score (4H3843-bN): -0.731
- interaction score (4H3855-bN): -0.717
- interaction score (4H4001-bN): -1
- interaction score (4H454-bN): -0.965
- interaction score (4H462-bN): -0.741
- interaction score (4H568-bN): -1.33
- interaction score (4H570-bN): -2.11
- interaction score (4H607-bN): -1.09
- interaction score (4H619-bN): -0.153
- interaction score (4H687-bN): -1.5
- interaction score (4H717-bN): -0.951
- interaction score (4H72-bN): -0.603
- interaction score (4H754-bN): -1.28
- interaction score (4H797-bN): -0.559
- interaction score (4H883-bN): -0.686
- interaction score (4H908-bN): -0.834
- interaction score (4H918-bN): -1.04
- interaction score (4H953-bN): -1.04
- interaction score (4H967-bN): -1.31

B2: 4H2442-bN (peptide)
chain: DKIQQLEQKNQELEQEIQELKWEIQELKQ
- interaction score (4H2442-bN): -0.216
- interaction score (4H2576-bN): -0.32
- interaction score (4H2618-bN): 0.706
- interaction score (4H2667-bN): 0.241
- interaction score (4H2692-bA): -0.104
- interaction score (4H2729-bN): 0.367
- interaction score (4H2931-bA): 0.256
- interaction score (4H3112-bN): -0.821
- interaction score (4H3185-bN): -1.14
- interaction score (4H331-bN): 0.796
- interaction score (4H3354-bN): -0.568
- interaction score (4H338-bN): -0.476
- interaction score (4H3427-bN): -0.236
- interaction score (4H3782-bN): 0.148
- interaction score (4H3855-bN): -0.731
- interaction score (4H4001-bN): 0.0198
- interaction score (4H454-bN): 0.883
- interaction score (4H568-bN): -0.89
- interaction score (4H607-bN): -1.3
- interaction score (4H687-bN): -0.717
- interaction score (4H717-bN): -1.28
- interaction score (4H72-bN): -0.588
- interaction score (4H754-bN): -0.65
- interaction score (4H797-bN): -0.491
- interaction score (4H883-bN): -0.738
- interaction score (4H908-bN): -0.788
- interaction score (4H918-bN): -0.127
- interaction score (4H953-bN): -0.933
- interaction score (4H967-bN): -0.892

B3: 4H1629-bA (peptide)
chain: DENAQLKQEIAELKQENAELKWKIAQLEQ
- interaction score (4H1629-bA): 0.605
- interaction score (4H1710-bA): -0.992
- interaction score (4H1804-bA): -1.39
- interaction score (4H1985-bA): -0.329
- interaction score (4H2667-bN): -1.22
- interaction score (4H3129-bA): 0.102
- interaction score (4H3172-bA): -0.887
- interaction score (4H3414-bA): 0.702
- interaction score (4H3631-bA): -0.216
- interaction score (4H3638-bA): -0.477
- interaction score (4H3817-bA): -0.529
- interaction score (4H3974-bA): -0.124
- interaction score (4H570-bA): -0.594
- interaction score (4H584-bA): -1.4
- interaction score (4H619-bA): -0.0748
- interaction score (4H850-bA): -1.14
- interaction score (4H906-bA): -0.968
